Assay results from PMC3839042 (Biochemistry, 2013).
Where two headings read alike, the source gives them in different places.

B1: human S100B (natural protein, UniProt P04271 1-92, looked up)
chain: MSELEKAMVALIDVFHQYSGREGDKHKLKKSELKELINNELSHFLEEIKEQEVVDKVMETLDNDGDGECDFQEFMAFVAMVTTACHEFFEHE
B2: human S100P (natural protein, UniProt P25815 1-95, looked up)
chain: MTELETAMGMIIDVFSRYSGSEGSTQTLTKGELKVLMEKELPGFLQSGKDKDAVDKLLKDLDANGDAQVDFSEFIVFVAAITSACHKYFEKAGLK
B3: human S100A2 (natural protein)
chain: not shown

Experiments:
[1] = target: B3; test: other fluorescence titration
[2] = target: B2; test: ITC
[3] = target: B2; test: other fluorescence titration
[4] = target: B1; test: ITC
[5] = target: B1; test: other fluorescence titration
[6] = target: B3; test: ITC
[7] = target: T1, TRTK12 wild-type peptide (Ac-…-NH2) (N-terminus acetylated; C-terminus amidated); test: ITC
[8] = target: T1, TRTK12 wild-type peptide (Ac-…-NH2); test: stopped-flow fluorescence
[9] = target: T1, TRTK12 wild-type peptide (Ac-…-NH2); test: stopped-flow fluorescence; remark: listed apart in the source
[10] = target: T1, TRTK12 wild-type peptide (Ac-…-NH2); test: other fluorescence titration
[11] = target: T1, TRTK12 wild-type peptide (Ac-…-NH2); test: ITC; remark: listed apart in the source
[12] = target: T1, TRTK12 wild-type peptide (Ac-…-NH2); test: other fluorescence titration; remark: listed apart in the source
[13] = target: T1, TRTK12 wild-type peptide (Ac-…-NH2); test: stopped-flow fluorescence; remark: listed apart in the source
[14] = target: T1, TRTK12 wild-type peptide (Ac-…-NH2); test: other fluorescence titration; remark: listed apart in the source
[15] = target: T1, TRTK12 wild-type peptide (Ac-…-NH2); test: stopped-flow fluorescence; remark: listed apart in the source
[16] = target: T1, TRTK12 wild-type peptide (Ac-…-NH2); test: ITC; remark: listed apart in the source

Kd [1] [µM]	Kd [2] [µM]	Kd [3] [µM]	Kd [4] [µM]	Kd [5] [µM]	Kd [6] [µM]	Binder	other results
16 ± 1	2 ± 0.5	7 ± 3	2.9 ± 1	0.2 ± 0.1	15.2 ± 1	Ac-ARTKIDWNKILS-NH2 [TRTKM1 (Ac-ARTKIDWNKILS-NH2)]	–
17 ± 4	7.1 ± 0.5	30 ± 10	1.7 ± 0.1	2 ± 1	45 ± 2	Ac-TRTKIDWNAILS-NH2 [TRTKM9 (Ac-TRTKIDWNAILS-NH2)]	–
–	–	–	–	–	–	B1	Kd [7]: 1.7 ± 0.1 µM; koff [8]: 86 s⁻¹; koff [9]: 53 s⁻¹; kon [9]: 3.1e+07 M⁻¹ s⁻¹; Kd [10]: 3 ± 1 µM
–	43.1 ± 3.9	–	–	–	–	Ac-TRTKIDWNKALS-NH2 [TRTKM10 (Ac-TRTKIDWNKALS-NH2)]	–
–	–	–	–	–	–	B2	Kd [11]: 5.1 ± 0.3 µM; Kd [12]: 11 ± 1 µM; koff [13]: 286 s⁻¹; kon [13]: 5.6e+07 M⁻¹ s⁻¹
–	56.2 ± 4	100 ± 23	1.2 ± 0.4	0.6 ± 0.6	131 ± 6.1	Ac-TRTKADWNKILS-NH2 [TRTKM5 (Ac-TRTKADWNKILS-NH2)]	–
23 ± 3	7.4 ± 1	–	1.3 ± 0.6	5 ± 1	21.5 ± 4	Ac-TRTKIAWNKILS-NH2 [TRTKM6 (Ac-TRTKIAWNKILS-NH2)]	–
–	–	–	–	–	–	B3	Kd [14]: 43 ± 9 µM; koff [15]: ≥ 250 s⁻¹; Kd [16]: 48 ± 3 µM
–	31.7 ± 0.5	–	3.8 ± 1	10 ± 3	504 ± 9.7	Ac-TRTKIDWNKIAS-NH2 [TRTKM11 (Ac-TRTKIDWNKIAS-NH2)]	–
